Assay results reported in publication PMC10279719 (Nature Communications, 2023).

Legend:
Settings in all cases: both partners purified
[1] = biological target: T1, PEAK2^IDR1 (residues 802-1406), from insect cells (human, UniProt Q86YV5 802-1406, phosphorylation of the tandem site 14-3-3 motif (RAASSP) found by proteomic analysis; biotin (EZ-Link NHS-PEG4-Biotin, 1:1 molar ratio)); experiment: SPR; biotinylated PEAK proteins (with or without Src phosphorylation) captured with a biotin CAPture kit, CrkII NSH3 as analyte; Biacore 8K+, 20 °C, HBS-TP (150 mM NaCl); 1 M NaCl regeneration; steady state
T1 construct: human PEAK2 (SgK223, PRAG1), UniProt Q86YV5, residues 802-1406; Purifies as a homodimer
T1 sequence (looked up): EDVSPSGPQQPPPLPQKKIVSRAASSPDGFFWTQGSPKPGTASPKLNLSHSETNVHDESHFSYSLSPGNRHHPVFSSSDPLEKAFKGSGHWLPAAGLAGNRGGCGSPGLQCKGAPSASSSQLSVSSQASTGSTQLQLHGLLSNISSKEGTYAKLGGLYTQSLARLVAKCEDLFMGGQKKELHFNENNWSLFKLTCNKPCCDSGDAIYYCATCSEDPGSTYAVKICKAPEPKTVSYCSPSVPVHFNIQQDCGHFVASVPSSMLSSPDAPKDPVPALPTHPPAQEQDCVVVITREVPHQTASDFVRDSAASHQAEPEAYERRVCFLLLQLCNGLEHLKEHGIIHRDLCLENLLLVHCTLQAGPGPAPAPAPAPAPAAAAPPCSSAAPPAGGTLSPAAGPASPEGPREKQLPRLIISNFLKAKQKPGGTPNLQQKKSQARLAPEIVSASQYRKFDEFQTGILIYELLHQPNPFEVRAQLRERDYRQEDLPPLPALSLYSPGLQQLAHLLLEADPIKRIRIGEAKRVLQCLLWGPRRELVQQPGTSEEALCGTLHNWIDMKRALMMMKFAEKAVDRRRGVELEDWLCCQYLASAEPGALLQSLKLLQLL

[2] = biological target: T2, full length PEAK3 (PEAK3^FL, residues 1-473), from insect cells (human, UniProt Q6ZS72 1-473, phosphoserine at S69; biotin (EZ-Link NHS-PEG4-Biotin, 1:1 molar ratio)); experiment: as above
T2 construct: Immobilised as the complex with insect cell 14-3-3ε,ζ
T2 sequence (looked up): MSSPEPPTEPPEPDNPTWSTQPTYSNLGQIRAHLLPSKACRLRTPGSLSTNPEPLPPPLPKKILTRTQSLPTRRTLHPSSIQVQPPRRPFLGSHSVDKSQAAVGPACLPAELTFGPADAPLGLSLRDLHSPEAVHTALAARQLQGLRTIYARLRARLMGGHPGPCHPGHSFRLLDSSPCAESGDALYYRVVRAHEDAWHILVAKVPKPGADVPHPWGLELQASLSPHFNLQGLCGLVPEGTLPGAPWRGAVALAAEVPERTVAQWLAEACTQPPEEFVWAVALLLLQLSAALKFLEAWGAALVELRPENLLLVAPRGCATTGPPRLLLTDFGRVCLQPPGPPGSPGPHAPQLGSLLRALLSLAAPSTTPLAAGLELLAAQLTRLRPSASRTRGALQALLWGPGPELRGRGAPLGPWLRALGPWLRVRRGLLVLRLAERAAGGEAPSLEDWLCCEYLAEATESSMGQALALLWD

[3] = biological target: T3, full length PEAK3 (PEAK3^FL, residues 1-473), from E. coli, phosphorylated by Src (human, UniProt Q6ZS72 1-473, phosphorylated with Src kinase (Y24 is the site shown for PEAK3^FL by MS/MS); other Src sites not stated; biotin (EZ-Link NHS-PEG4-Biotin, 1:1 molar ratio)); experiment: as above
T3 construct: also called PEAK3-FL E.coli (+ Src phosphorylation); source: E. coli C41 (DE3), purified; phosphorylated in vitro with recombinant Src kinase domain
T3 sequence (looked up): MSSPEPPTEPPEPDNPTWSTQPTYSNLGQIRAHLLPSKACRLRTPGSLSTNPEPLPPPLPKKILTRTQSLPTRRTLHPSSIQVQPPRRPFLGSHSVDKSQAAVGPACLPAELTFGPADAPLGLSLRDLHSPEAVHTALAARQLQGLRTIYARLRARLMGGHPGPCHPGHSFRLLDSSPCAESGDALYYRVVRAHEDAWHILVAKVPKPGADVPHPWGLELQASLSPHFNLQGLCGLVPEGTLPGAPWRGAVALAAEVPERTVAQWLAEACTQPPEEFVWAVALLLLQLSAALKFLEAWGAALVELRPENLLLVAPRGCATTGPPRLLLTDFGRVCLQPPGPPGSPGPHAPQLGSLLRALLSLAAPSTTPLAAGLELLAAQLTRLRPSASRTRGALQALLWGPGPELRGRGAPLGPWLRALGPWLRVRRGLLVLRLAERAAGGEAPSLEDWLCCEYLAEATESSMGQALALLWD

[4] = biological target: T4, PEAK2^IDR1 (residues 802-1406), from insect cells, phosphorylated by Src (human, UniProt Q86YV5 802-1406, phosphorylated with Src kinase, sites not stated; phosphorylation of the tandem site 14-3-3 motif (RAASSP) found by proteomic analysis; biotin (EZ-Link NHS-PEG4-Biotin, 1:1 molar ratio)); experiment: as above
T4 construct: human PEAK2 (SgK223, PRAG1), UniProt Q86YV5, residues 802-1406; also called PEAK2-IDR1 (+ Src phosphorylation); source: Sf21 insect cells, purified; phosphorylated in vitro with recombinant Src kinase domain
T4 sequence (looked up): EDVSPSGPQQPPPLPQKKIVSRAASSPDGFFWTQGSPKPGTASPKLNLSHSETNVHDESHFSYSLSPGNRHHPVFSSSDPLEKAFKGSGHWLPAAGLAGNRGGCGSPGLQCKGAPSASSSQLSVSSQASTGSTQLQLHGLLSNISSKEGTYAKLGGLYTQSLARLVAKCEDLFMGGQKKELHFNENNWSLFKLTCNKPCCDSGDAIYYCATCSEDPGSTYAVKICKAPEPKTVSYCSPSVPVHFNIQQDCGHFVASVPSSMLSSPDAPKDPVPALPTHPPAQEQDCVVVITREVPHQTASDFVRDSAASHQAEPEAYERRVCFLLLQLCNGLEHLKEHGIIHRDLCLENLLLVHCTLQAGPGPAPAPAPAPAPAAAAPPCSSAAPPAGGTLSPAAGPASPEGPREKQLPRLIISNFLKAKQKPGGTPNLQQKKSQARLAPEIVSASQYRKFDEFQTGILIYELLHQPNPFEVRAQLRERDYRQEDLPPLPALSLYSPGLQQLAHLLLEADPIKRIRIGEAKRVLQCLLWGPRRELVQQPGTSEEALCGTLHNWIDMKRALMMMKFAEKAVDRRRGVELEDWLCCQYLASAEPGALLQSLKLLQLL

[5] = biological target: T5, PEAK3 tandem peptide, non-phosphorylated (residues 54-74) (human, N-terminal acetyl; C-terminal amide); experiment: ITC; binary; peptide in the cell (20 µM, or 16.8 µM after a buffer titration), protein in the syringe; 25 °C, 20 mM HEPES pH 7.4, 150 mM NaCl, 1 mM TCEP; single binding site model
T5 construct: source: synthetic peptide, bought: Mimotopes (95% purity)
T5 peptide: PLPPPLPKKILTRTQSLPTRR

[6] = biological target: T6, PEAK3 tandem-pS69 peptide (residues 54-74) (human, N-terminal acetyl; phosphoserine at S69; C-terminal amide); experiment: as above
T6 construct: source: synthetic peptide, bought: Mimotopes (95% purity)
T6 peptide: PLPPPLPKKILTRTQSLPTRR

B1: CrkII N-terminal SH3 domain (CrkII^NSH3, residues 134-191) (domain or fragment, human, UniProt P46108-1 134-191, looked up)
chain: AEYVRALFDFNGNDEEDLPFKKGDILRIRDKPEEQWWNAEDSEGKRGMIPVPYVEKYR
notes: human CrkII NSH3 domain, UniProt P46108-1, residues 134-191; Amine coupled to a CM5 chip in a2; analyte in a4; in the syringe in ITC
Kd [1]: 4.79 µM
Kd [2]: 3.87 µM
Kd [3]: 13.1 µM
Kd [4]: 5.2 µM
stoichiometry N [5]: 0.904
stoichiometry N [6]: 0.823
